Reference: article PMC11210195

Assays:
Assay in all cases: SPR; Biacore T200, C1 chip, 25 °C, HBS-EP+ (10 mM HEPES, 150 mM NaCl, 3 mM EDTA, 0.05% P20, pH 7.4); antibody Fc variants captured via anti-human Fab-kappa nanobody (about 60 RU), Fc only variants amine-coupled (60-80 RU), cytokine-Fc fusions captured via anti-PGLALA F(ab')2 (35-40 RU); PRYSPRY domain injected in five two-fold dilutions from 500, 1000 or 2000 nM; global fit, Langmuir 1:1, affinity mode
[1] = target: mAb1 HH (human IgG1, T307H, N434H) (human)
Briakinumab (human) = target: Briakinumab (human)
[2] = target: mAb2 WT KiH (human IgG1, knob-into-hole, Fc wild type at the TRIM21 site) (human)
[3] = target: mAb2 WT-AAA (asymmetrical human IgG1, one Fc heavy chain H310A, H433A, Y436A) (human)

TRIM21 PRYSPRY domain, sequence (P19474 277-475): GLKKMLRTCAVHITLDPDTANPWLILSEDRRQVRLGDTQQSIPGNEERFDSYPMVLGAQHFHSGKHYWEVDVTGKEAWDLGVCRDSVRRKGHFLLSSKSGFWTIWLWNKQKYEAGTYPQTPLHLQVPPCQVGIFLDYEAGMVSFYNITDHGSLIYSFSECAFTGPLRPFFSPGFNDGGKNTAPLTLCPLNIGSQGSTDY
Briakinumab (human), sequence (heavy, as listed by the source, chain 1 of 2): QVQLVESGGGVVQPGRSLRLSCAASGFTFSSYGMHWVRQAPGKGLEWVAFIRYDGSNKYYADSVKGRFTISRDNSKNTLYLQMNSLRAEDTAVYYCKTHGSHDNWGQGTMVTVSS
Briakinumab (human), sequence (light, as listed by the source, chain 2 of 2): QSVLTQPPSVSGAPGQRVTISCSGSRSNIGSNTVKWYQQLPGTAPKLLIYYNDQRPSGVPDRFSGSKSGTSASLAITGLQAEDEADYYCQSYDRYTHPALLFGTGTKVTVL

With “TRIM21 PRYSPRY domain (from UniProt P19474-1 277-475) (domain or fragment)” the Kd [1] was 101 nM, the koff [1] was 0.477 s⁻¹ and the kon [1] was 4.74e+06 M⁻¹ s⁻¹. The Kd (Briakinumab (human)) was 52.3 nM, the koff (Briakinumab (human)) was 0.115 s⁻¹ and the kon (Briakinumab (human)) was 2.2e+06 M⁻¹ s⁻¹. For the same substance, the Kd [2] was 49.6 nM, the koff [2] was 0.118 s⁻¹ and the kon [2] was 2.38e+06 M⁻¹ s⁻¹. The Kd [3] was 38.5 nM, the koff [3] was 0.0901 s⁻¹ and the kon [3] was 2.34e+06 M⁻¹ s⁻¹.
